{
  "source": "patent US20160193296A1",
  "about": "“METHODS FOR TREATMENT OF MICROCEPHALY ASSOCIATED AUTISM DISORDERS” (BROWN UNIVERSITY, priority 2012, published 2016)",
  "molecules": {"B1": {"name": "BDNF: secreted protein, member of the neurotrophin family of growth factors; binds to the TrkB receptors (protein)", "chain": "HSDPARRGELSVCDSISEWVTAADKKTAVDMSGGTVTVLEKVPVSKGQLKQYFYETKCNPMGYTKEGCRGIDKRHWNSQCRTTQSYVRALTMDSKKRIGWRFIRIDTSCVCTLTIKRGR"}},
  "key": {"[1]": {"tested_on": "NHE6 mutant hippocampal neurons", "test": "Axonal and dendritic branching of cultured hippocampal neurons with exogenous BDNF", "format": "cell-based, mouse", "description": "(§1) Hippocampi were dissected from P0-P1 mice, dissociated with papain (20 units/ml) in Earle's Balanced Salt Solution (EBSS) with bicarbonate at 37° C. for 30 min and triturated with a 1 ml pipette. Hippocampal neurons were placed on 8-well chamber slides coated with 1 mg/ml poly-D-lysine at a cell density of 3×10^5 cells/ml. For neuronal morphology, neurons at 1 DIV were transfected with EGFP constructs or together with testing constructs at a ratio of 1:1 using Lipofectamine 2000 (Invitrogen) according to manufacturer guidelines. For LysoTracker experiments, GFP transfected neurons at 5 DIV were incubated with 100 nM Lysotracker Red DND-99 at 37° C. for 30 min. After washing with PBS for 3 times, cells were imaged live or cells were fixed with 4% paraformaldehyde for 15 min and Z-series images were obtained under a Zeiss LSM710 confocal laser scanning microscope.\nImages of cultured hippocampal neurons (2 DIV) were captured from randomly chosen fields on a Zeiss LSM710 confocal laser scanning microscope, blinded to genotypes, and traced using Metamorph Neurite Outgrowth software. The number of processes (i.e., neurites emanating directly from the cell body) per cell, the total number and total cumulative length of all neurite branches per cell and the length of the longest neurite per cell were determined. Z-series images of individual GFP-filled neurons at 5 DIV were obtained on a Carl Zeiss 710 confocal microscope and traced manually using Neurolucida software. Quantification of the branch number and total length of axons and dendrites per cell was done on images acquired with 20× objective. Quantitative analysis for LysoTracker red labeled endosomes was performed by using Neurolucida in images acquired with 63× objective. LysoTracker red puncta that completely overlapped with GFP-labeled dendrites or axons were scored as co-localized endosomes. Each experiment was performed on at least three different batches of cultured neurons.\nTaken together our data support a model wherein due to loss of NHE6 there is an abnormal acidification of early endosomes resulting in impoverished branching as a result of decreases in BDNF/TrkB signaling. Given this model, we predicted that exogenous and high levels of BDNF may rescue the branching defects through enhancing TrkB signaling. To investigate the ability of exogenous BDNF to interact and improve the cellular phenotype seen, we added BDNF (50 ng/ml) to wild-type and mutant cultures at 2 DIV and examined cultures on day 5 for effects on axonal and dendritic branching associated with NHE6 mutation. […] We saw effects on both branching as well as an increase in the number of primary dendrites. […]"}, "[2]": {"tested_on": "TrkB receptor", "test": "Western blot of TrkB receptor and phospho-Trk levels after BDNF in hippocampal cultures at 4 DIV", "format": "cell-based, mouse", "conditions": "for TrkB receptor level normalized to time of BDNF administration: 50 ng/ml BDNF for 30 min", "description": "as §1\nNext, we examined directly the levels of TrkB receptor in response to signaling. TrkB is well-known to be endocytosed upon binding BDNF and a significant degree of signaling has been proposed to occur within signaling endosomes upon endocytosis. […] To test this hypothesis, we examined TrkB receptor levels and phospho-Trk levels in response to BDNF signaling in NHE6 mutant and wild type hippocampal cultures at 4 DIV."}, "[3]": {"conditions": "NHE6 mutant neurons, BDNF 50 ng/ml added at 2 DIV, examined on day 5"}},
  "data": [
    {"molecule": "B1", "values": [
      {"measurement": "rescue of branching defects (in words)", "setting": "[1]; NHE6 mutant cells, BDNF 50 ng/ml, 2 DIV to day 5", "result": "increased both axonal and dendritic branching in mutant cells to a level approaching wild-type levels"},
      {"measurement": "axonal branching", "setting": "[1]; [3]", "result": "27.7+/−2.0 branch points per cell"},
      {"measurement": "dendritic branching", "setting": "[1]; [3]", "result": "34.4+/−2.4 branches per cell"},
      {"measurement": "primary dendrites", "setting": "[1]; [3]", "result": "8.7+/−0.4 dendrites"},
      {"measurement": "TrkB receptor level normalized to time of BDNF administration", "setting": "[2]; NHE6 mutant neurons", "result": "0.79+/−0.04"},
      {"measurement": "TrkB receptor level in mutant neurons as % of the control", "setting": "[2]; mutant/WT, 50 ng/ml BDNF, 30 min", "result": 76.5, "unit": "%"},
      {"measurement": "TrkB receptor level in mutant neurons as % of wild type", "setting": "[2]; mutant/WT, 50 ng/ml BDNF, 60 min", "result": 73.3, "unit": "%"},
      {"measurement": "TrkB receptor level in mutant neurons as % of wild type", "setting": "[2]; mutant/WT, 50 ng/ml BDNF, 2 h", "result": 74.9, "unit": "%"},
      {"measurement": "induction of phospho-Trk in mutant compared to control", "setting": "[2]; mutant/WT, after adding BDNF, throughout the whole treatment duration", "result": "approximately 48%"},
      {"measurement": "TrkB receptor level normalized to time of BDNF administration", "setting": "[2]; wild type neurons", "result": "1.03+/−0.06"}
    ]}
  ]
}
